The record followed here is patent publication US20180258174A1 (INSITUT NATIONAL DE LA SANTE ET DE LA RECHERCHE MEDICALE …, published 2018).

This assay addresses RLIQ108D/CD122 complex (RLIQ108D bound to immobilized CD122) (human, UniProt P14784 27-240, limits assumed). The assay is described as follows: SPR, sequential binding on immobilized CD122. As to the method: The SPR experiments were performed with a BIAcore 3000 biosensor (BIAcore, Uppsala, Sweden). Recombinant proteins (hCD122, hCD132, Fc-IL-15Rα) were covalently linked to CM5 sensor chips, and the binding of increasing concentrations of ligands (IL-15, IL-15Q108D, RLI, RLIQ108D, RLIN65K) was monitored. Analysis of sensorgrams was performed using BIAlogue kinetics evaluation software.
In order to inhibit IL-2 and IL-15 dependent effector functions, we developed an original approach targeting the CD122/CD132 dimer, by combining an increased affinity for CD122 and an impaired recruitment of CD132. […] We have thus generated RLIQ108D, a fusion molecule between IL-15Q108D mutein covalently linked to the soluble IL-15Rα sushi domain. As a control, RLIN65K was produced in which CD122 recruitment was abrogated by introducing the N65K mutation in the IL-15 moiety. […] By contrast, RLIN65K was unable to bind CD122 (FIG. 11C). Furthermore, soluble CD132 binding to RLI/CD122 complex was completely abrogated when introducing in RLI the Q108D substitution (RLIQ108D) (FIG. 11E). […] As a control, the binding of the non-blocking CF-1 anti-CD122 mAb was unaffected by either RLIQ108D or RLIN65K (FIG. 12A).
(In general: Surface plasmon resonance follows binding to a sensor surface in real time, without labels.)

RLIQ108D/CD122 complex (RLIQ108D bound to immobilized CD122), sequence (chain, as listed by the source limits assumed, chain 1 of 2): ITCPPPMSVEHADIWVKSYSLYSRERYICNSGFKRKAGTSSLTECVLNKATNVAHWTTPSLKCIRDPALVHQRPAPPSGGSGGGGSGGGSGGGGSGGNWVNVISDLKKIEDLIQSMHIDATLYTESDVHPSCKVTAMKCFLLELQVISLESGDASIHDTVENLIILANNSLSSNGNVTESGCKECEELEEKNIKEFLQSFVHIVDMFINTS
RLIQ108D/CD122 complex (RLIQ108D bound to immobilized CD122), sequence (P14784 27-240 limits assumed, chain 2 of 2): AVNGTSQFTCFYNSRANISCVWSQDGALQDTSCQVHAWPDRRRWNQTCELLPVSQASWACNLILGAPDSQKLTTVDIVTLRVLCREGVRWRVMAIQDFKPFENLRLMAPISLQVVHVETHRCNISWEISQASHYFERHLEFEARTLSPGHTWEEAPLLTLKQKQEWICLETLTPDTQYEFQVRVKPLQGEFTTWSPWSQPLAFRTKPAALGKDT

B1: hCD132 (recombinant, soluble CD132 chain) (receptor, human, UniProt P31785 23-262, looked up)
chain: LNTTILTPNGNEDTTADFFLTTMPTDSLSVSTLPLPEVQCFVFNVEYMNCTWNSSSEPQPTNLTLHYWYKNSDNDKVQKCSHYLFSEEITSGCQLQKKEIHLYQTFVVQLQDPREPRRQATQMLKLQNLVIPWAPENLTLHKLSESQLELNWNNRFLNHCLEHLVQYRTDWDHSWTEQSVDYRHKFSLPSVDGQKRYTFRVRSRFNPLCGSAQHWSEWSHPIHWGSNTSKENPFLFALEA
B1: the binding result was “no binding”.
